How the values were obtained:
[1] = tested on: PBMC (Peripheral blood mononuclear cells); assay: cell based in vitro cytotoxicity/anti-proliferation assay (summary); details: normal cells
Procedure: The percentage cytotoxicity was calculated using the statistical tool.

[2] = tested on: HT-29 (Colorectal cancer); assay: Xenograft study; assay type: in vivo, mice
Description: (§1) The Xenograft models used were HT-29, KB, PA-1, MCF-7, PANC-1, T24 and MDA-MB-231. The basic study design for the Xenograft study was as follows: • 1. Cell maintenance and cell suspension preparation • 2. Aseptic injection of tumor cell suspension in the donor animal • 3. Randomization of animals in respective groups • 4. IP dosing of test items in predetermined doses • 5. IP administration of standard • 6. After completion of dosing period. • 7. The Tumor volume recording weekly twice while body weight and clinical signs daily.

KB (Cervical cancer) = assay: Xenograft study; assay type: in vivo, mice; details: IP
Description: as §1

MCF-7 (Breast cancer) = assay: Xenograft study; assay type: in vivo, mice; details: MCF-7 xenograft, IP
Description: as §1

[3] = tested on: MDA-MB-231 (Mammary gland/breast adenocarcinoma); assay: Xenograft study; assay type: in vivo, mice; details: MDA-MB-231 xenograft, IP
Description: as §1

[4] = tested on: PA-1 (Ovary teratocarcinoma); assay: Xenograft study; assay type: in vivo, mice; details: PA-1 xenograft, IP
Description: as §1

[5] = tested on: PANC-1 (Pancreas/duct epithelioid carcinoma); assay: Xenograft study; assay type: in vivo, mice; details: PANC-1 xenograft, IP
Description: as §1

[6] = tested on: T24 (Urinary bladder/transitional cell carcinoma); assay: Xenograft study; assay type: in vivo, mice; details: IP
Description: as §1

IOMM-Lee cell line [7] = assay: Mitochondrial membrane depolarization by JC-1 staining; assay type: cell-based, Human; details: 1 μg/mL-80 μg/mL
Procedure: (§2) The evaluation of pro-apoptotic effect of SEQ ID NO. 2 in brain tumor cell lines U251MG & IOMM Lee was conducted. The cells were treated with SEQ ID NO. 2 at various concentrations around IC50 values. Resultant effect on apoptosis was determined via externalization of Phosphatidyl Serine (PS) on cell membrane by Annexin-V staining, mitochondrial membrane depolarization by JC-1 staining and cell cycle distribution analysis by Propidium Iodide (PI) staining. Increase in apoptotic markers in U251MG & IOMM-Lee cell lines reflected the pro-apoptotic potential of SEQ ID NO. 2 in brain tumor. • Externalization of PS on cell membrane by Annexin-V staining on U251MG cell line: SEQ ID NO.

U251MG cell line = assay: as above; assay type: cell-based, Human; details: 1 μg/mL-80 μg/mL
Procedure: as §2

IOMM-Lee cell line [8] = assay: cell cycle distribution analysis by Propidium Iodide (PI) staining; assay type: cell-based, Human; details: 1 μg/mL-500 μg/mL
Procedure: as §2

Contactin-1 = assay: biomarker levels in IOMM-Lee by multiplex analysis; assay type: cell-based, Human; details: 1 μg/mL-80 μg/mL, 48 h
Description: (§3) Effect of SEQ ID No 2 on the expression of following 7 biomarkers were estimated in Human Meningioma cell line (IOMM-Lee) using multiplex analysis: TNF-alpha, VEGF, VEGFR2, HGF, HGFR/c-MET, PDGF-BB, and Contactin-1. Levels of another marker, Notch-1 were also estimated by ELISA in the same cell line. These 8 biomarkers play very crucial role in the pathogenesis and progression of Brain Tumor. […] Supernatants were collected and the levels of these 8 markers were investigated.

HGFR/c-MET = assay: biomarker levels in IOMM-Lee by multiplex analysis; assay type: cell-based, Human; details: 1 μg/mL-80 μg/mL, 48 h
Description: as §3

HGF = assay: biomarker levels in IOMM-Lee by multiplex analysis; assay type: cell-based, Human; details: 1 μg/mL-80 μg/mL, 48 h
Description: as §3

PDGF-BB = assay: biomarker levels in IOMM-Lee by multiplex analysis; assay type: cell-based, Human; details: 1 μg/mL-80 μg/mL, 48 h
Description: as §3

TNF-α = assay: biomarker levels in IOMM-Lee by multiplex analysis; assay type: cell-based, Human; details: 1 μg/mL-80 μg/mL, 48 h
Description: as §3

VEGFR2 = assay: biomarker levels in IOMM-Lee by multiplex analysis; assay type: cell-based, Human; details: 1 μg/mL-80 μg/mL, 48 h
Description: as §3

VEGF = assay: biomarker levels in IOMM-Lee by multiplex analysis; assay type: cell-based, Human; details: 1 μg/mL-80 μg/mL, 48 h
Description: as §3

[9] = tested on: MCF-7 (Human breast adenocarcinoma); assay: MTT cytotoxicity assay; details: 48h
Procedure: (§4) All the cancer cell lines were procured from National Centre for Cell Science, Pune (India). Cell lines were maintained under conditions as mentioned in Table 23. The cell lines were sub-cultured by trypsinization followed by splitting the cell suspension into fresh flasks and supplementing with fresh culture medium.
(§5) All the cell lines were grown in specified media at 37° C. with 95% Humidity and 5% CO2.
(§6) The cells were trypsinized, counted by Trypan blue method in Neuebauer's Chamber and plated in wells of flat bottom 96-well plate at the density corresponding to 10×10^3 cells/well/200 μL medium.
(§7) Following overnight incubation, the media in the plate was replenished with 180 μL/well and then the cells were treated with 20 μL of each test item at concentrations ranging from 2.5 μg/mL-80 μg/mL in triplicates, so that the total volume in each well is 200 μL.
(§8) The untreated cells served as negative control. The cells were incubated with the test items or positive control for a time period of 48h. Following incubation, the cell cytotoxicity was estimated using MTT assay. Absorbance was measured at 540 nm. The percentage cytotoxicity corresponding to each treatment was calculated using the formula:
(§9) % Cytotoxicity=(1−X/R)*100
(§10) Where X=absorbance of wells corresponding to treated cells R=absorbance of untreated cells (cells maintained in growth medium only)
(§11) IC50 value was calculated using Graph-Pad Prism version 4.01 software.

[10] = tested on: PANC-1 (Human pancreatic epitheloid carcinoma); assay: MTT cytotoxicity assay; details: 48h
Procedure: as §4, §5, §6, §7, §8, §9, §10, §11

[11] = tested on: PBMCs (Peripheral blood mononuclear cells); assay: MTT cytotoxicity assay; details: 48h
Procedure: as §4, §5, §6, §7, §8, §9, §10, §11

[12] = tested on: T24 (Human Bladder Cancer); assay: MTT cytotoxicity assay; details: 48h
Procedure: as §4, §5, §6, §7, §8, §9, §10, §11

Meningioma (IOMM-Lee) = assay: cytotoxicity in Brain Tumor Cell lines by MTT assay; details: 72 h

B1: SEQ ID NO. 2: recombinant lectin; variant of the S. rolfsii lectin amino acid sequence (reported as Rec-2 in WO 2010/095143) (protein)
chain: TYKITVRVYQTNPDAFFHPVEKTVWKYANGGTWTITDDQHVLTMGGSGTSGTLRFHADNGESFTATFGVHNYKRWCDIVTNLAADETGMVINQQYYSQKNREEARERQLSNYQVKNAKGRNFQIVYTEAEGNDLHANLIIG
modifications: In vitro synthesis
% Cytotoxicity ([1]; listed as SEQ ID NO 2): Nil
% Cytotoxicity ([1]; listed as SEQ ID No 2): did not show cytotoxic effect
tumor volume in comparison with the vehicle control group, in words ([2]; 20 mg/Kg and 30 mg/Kg body weight (daily)): significant decrease in tumor volume
Maximum Tumor Growth Inhibition (%) ([2]; HT-29 xenograft, IP): 56.62%
Tumor Volume (mm^3) (Mean ± SEM) ([2]; HT-29 xenograft, IP): 1702 ± 274 mm^3
Maximum Tumor Growth Inhibition (%) (KB (Cervical cancer)): 60.49%
Tumor Volume (mm^3) (Mean ± SEM) (KB (Cervical cancer)): 782 ± 92 mm^3
Maximum Tumor Growth Inhibition (%) (MCF-7 (Breast cancer)): 69.04%
Tumor Volume (mm^3) (Mean ± SEM) (MCF-7 (Breast cancer)): 1256 ± 132 mm^3
Maximum Tumor Growth Inhibition (%) [3]: 35.21%
Tumor Volume (mm^3) (Mean ± SEM) [3]: 834.80 ± 126.95 mm^3
Maximum Tumor Growth Inhibition (%) [4]: 62.15%
Tumor Volume (mm^3) (Mean ± SEM) [4]: 1050 ± 132 mm^3
Maximum Tumor Growth Inhibition (%) [5]: 39.15%
Tumor Volume (mm^3) (Mean ± SEM) [5]: 721.17 ± 194.63 mm^3
Maximum Tumor Growth Inhibition (%) [6]: 36.52%
Tumor Volume (mm^3) (Mean ± SEM) [6]: 551.06 ± 10.02 mm^3
increase in mitochondrial membrane depolarization as compared to Control (Untreated) (IOMM-Lee cell line [7]): 16.1%-36.4%
increase in mitochondrial membrane depolarization as compared to Control (Untreated) (U251MG cell line): 36.8%-60.9%
increase in apoptotic population; Sub (G0/G1) as compared to Control (Untreated) (IOMM-Lee cell line [8]): 1.1-35.3 fold
Percentage inhibition on levels of Contactin-1 (Contactin-1): 0.3%-27.2%
Percentage inhibition on levels of HGFR/c-MET (HGFR/c-MET): 5.5%-19.3%
Percentage inhibition on levels of HGF (HGF): 43.8%-93%^
Percentage inhibition on levels of PDGF-BB (PDGF-BB): 33.6%-100%
Percentage inhibition on levels of TNF-α (TNF-α): 16.8%-42.3%
Percentage inhibition on levels of VEGFR2 (VEGFR2): 17.8%-22.5%
Percentage inhibition on levels of VEGF (VEGF): 3.9%-49.3%
IC50 [9]: >80 µg/mL
IC50 [10]: 24.3 µg/mL
IC50 [11]: >80 µg/mL
IC50 [12]: 10.4 µg/mL
IC50 Value (Meningioma (IOMM-Lee)): 18.37 µg/mL
